Assay results: US20180303913A1
Where “and” joins values, the source holds several entries; their conditions need not be identical. Identical values can stand only once.

T1: Flag-HA-ID2 (human) (UniProt Q02363)
T1 sequence: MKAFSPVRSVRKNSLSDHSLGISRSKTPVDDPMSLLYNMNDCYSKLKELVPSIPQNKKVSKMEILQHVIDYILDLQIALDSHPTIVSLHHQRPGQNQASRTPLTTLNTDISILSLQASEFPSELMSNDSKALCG

B1: Elongator complex protein 4 (protein)
chain: MAAVATCGSVAASTGSAVATASKSNVTSFQRRGPRASVTNDSGPRLVSIAGTRPSVRNGQLLVSTGLPALDQLLGGGLAVGTVLLIEEDKYNIYSPLLFKYFLAEGIVNGHTLLVASAKEDPANILQELPAPLLDDKCKKEFDEDVYNHKTPESNIKMKIAWRYQLLPKMEIGPVSSSRFGHYYDASKRMPQELIEASNWHGFFLPEKISSTLKVEPCSLTPGYTKLLQFIQNIIYEEGFDGSNPQKKQRNILRIGIQNLGSPLWGDDICCAENGGNSHSLTKFLYVLRGLLRTSLSACIITMPTHLIQNKAIIARVTTLSDVVVGLESFIGSERETNPLYKDYHGLIHIRQIPRLNNLICDESDVKDLAFKLKRKLFTIERLHLPPDLSDTVSRSSKMDLAESAKRLGPGCGMMAGGKKHLDF

Molecular target: T1, Flag-HA-ID2 (human)
Assay: tandem Flag/HA affinity purification of Flag-HA-ID2 complexes from NCI-H1299 cells, LC-MS/MS; CRAPome specificity score

Q: For “78 kDa glucose-regulated protein (from UniProt P11021)”, which Calculated score [(#peptide*#xcorr)/(AveSC*MaxSC*Found# of Expt.)] is on record?
A: 0.000131 and 5.32e-05

Q: How did the Calculated score [(#peptide*#xcorr)/(AveSC*MaxSC*Found# of Expt.)] turn out when “Elongation factor 1-alpha 2 (from UniProt Q05639)” was run?
A: 1.18e-05

Q: “GR75_HUMAN Stress-70 protein (from UniProt P38646)” was tested. Which Calculated score [(#peptide*#xcorr)/(AveSC*MaxSC*Found# of Expt.)] did it give?
A: 1.1e-05

Q: Which Calculated score [(#peptide*#xcorr)/(AveSC*MaxSC*Found# of Expt.)] does the source give for “Heat shock 70 kDa protein 1A/1B (from UniProt P0DMV8)” here?
A: 4.5e-05

Q: How did the Calculated score [(#peptide*#xcorr)/(AveSC*MaxSC*Found# of Expt.)] turn out when “Heat shock cognate 71 kDa protein (NP_694881) (from UniProt P11142-2)” was run?
A: 1.88e-05

Q: How did the Calculated score [(#peptide*#xcorr)/(AveSC*MaxSC*Found# of Expt.)] turn out when “Protein arginine N-methyltransferase 5 (from UniProt O14744) (enzyme)” was run?
A: 6.8e-07

Q: How did the Calculated score [(#peptide*#xcorr)/(AveSC*MaxSC*Found# of Expt.)] turn out when “RING finger protein 113A (from UniProt O15541)” was run?
A: 0.212

Q: Which Calculated score [(#peptide*#xcorr)/(AveSC*MaxSC*Found# of Expt.)] does the source give for “Transcription factor E2-alpha (from UniProt P15923)” here?
A: 23.8

Q: How did the Calculated score [(#peptide*#xcorr)/(AveSC*MaxSC*Found# of Expt.)] turn out when Tubulin alpha-1B chain was run?
A: 1.25e-05

Q: For Tubulin beta chain, which Calculated score [(#peptide*#xcorr)/(AveSC*MaxSC*Found# of Expt.)] is on record?
A: 7.15e-06

Q: With “heat shock 70 kDa protein 1-like (from UniProt P34931)” as the molecule, how does the Calculated score [(#peptide*#xcorr)/(AveSC*MaxSC*Found# of Expt.)] read?
A: 7.39e-06

Q: “heat shock cognate 71 kDa protein isoform 1 (from UniProt P11142)” was tested. Which Calculated score [(#peptide*#xcorr)/(AveSC*MaxSC*Found# of Expt.)] did it give?
A: 3.81e-06

Q: With “transcription factor 12 isoform b (from UniProt Q99081)” as the molecule, how does the Calculated score [(#peptide*#xcorr)/(AveSC*MaxSC*Found# of Expt.)] read?
A: 7.71

Q: For tubulin beta-4B chain, which Calculated score [(#peptide*#xcorr)/(AveSC*MaxSC*Found# of Expt.)] is on record?
A: 1.79e-05

Q: For B1, which Calculated score [(#peptide*#xcorr)/(AveSC*MaxSC*Found# of Expt.)] is on record?
A: 0.0043
